Test results as given in patent publication US7728193B2, “Phytochrome-interacting protein and a use thereof” (Genomine Inc., priority 2004, dated 2010).

Tests used:
phytochrome A = target: T1, phytochrome A (Arabidopsis thaliana, UniProt P14712); assay: In vitro binding assay (GST pull-down of 35S-labeled TnT protein); settings: 1 μg GST-PAPP5 fusion protein, 4° C.
T1 sequence (P14712 1-1122): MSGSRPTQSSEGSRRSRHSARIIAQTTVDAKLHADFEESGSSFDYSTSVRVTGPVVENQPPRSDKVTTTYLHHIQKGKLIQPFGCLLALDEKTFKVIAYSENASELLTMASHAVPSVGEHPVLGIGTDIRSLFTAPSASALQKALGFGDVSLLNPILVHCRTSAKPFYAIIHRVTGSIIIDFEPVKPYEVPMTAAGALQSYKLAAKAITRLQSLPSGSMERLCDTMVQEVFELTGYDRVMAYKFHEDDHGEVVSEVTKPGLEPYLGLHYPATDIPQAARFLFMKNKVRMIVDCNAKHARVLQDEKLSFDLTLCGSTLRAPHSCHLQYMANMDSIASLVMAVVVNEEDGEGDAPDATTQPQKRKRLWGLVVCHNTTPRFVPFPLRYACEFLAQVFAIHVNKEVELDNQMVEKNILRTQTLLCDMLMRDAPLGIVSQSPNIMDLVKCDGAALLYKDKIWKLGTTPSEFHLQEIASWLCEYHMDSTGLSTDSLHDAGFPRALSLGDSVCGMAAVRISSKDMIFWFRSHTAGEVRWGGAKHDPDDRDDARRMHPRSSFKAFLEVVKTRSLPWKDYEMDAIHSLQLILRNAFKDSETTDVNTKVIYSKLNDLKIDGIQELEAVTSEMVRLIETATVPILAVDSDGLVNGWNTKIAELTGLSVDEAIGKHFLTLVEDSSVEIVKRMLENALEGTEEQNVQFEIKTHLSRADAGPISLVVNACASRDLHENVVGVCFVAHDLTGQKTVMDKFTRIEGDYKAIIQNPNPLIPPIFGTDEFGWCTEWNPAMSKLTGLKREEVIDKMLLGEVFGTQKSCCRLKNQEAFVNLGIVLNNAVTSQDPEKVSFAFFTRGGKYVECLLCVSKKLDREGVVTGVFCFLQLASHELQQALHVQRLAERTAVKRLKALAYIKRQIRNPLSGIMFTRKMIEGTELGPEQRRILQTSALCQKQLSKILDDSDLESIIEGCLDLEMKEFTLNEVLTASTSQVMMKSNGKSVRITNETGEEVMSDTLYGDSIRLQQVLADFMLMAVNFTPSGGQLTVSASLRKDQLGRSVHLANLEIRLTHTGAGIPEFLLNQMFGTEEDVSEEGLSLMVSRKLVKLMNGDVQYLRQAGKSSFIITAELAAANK
T1 sequence (Q84XU2 1-484 isoform Q84XU2-2 partner): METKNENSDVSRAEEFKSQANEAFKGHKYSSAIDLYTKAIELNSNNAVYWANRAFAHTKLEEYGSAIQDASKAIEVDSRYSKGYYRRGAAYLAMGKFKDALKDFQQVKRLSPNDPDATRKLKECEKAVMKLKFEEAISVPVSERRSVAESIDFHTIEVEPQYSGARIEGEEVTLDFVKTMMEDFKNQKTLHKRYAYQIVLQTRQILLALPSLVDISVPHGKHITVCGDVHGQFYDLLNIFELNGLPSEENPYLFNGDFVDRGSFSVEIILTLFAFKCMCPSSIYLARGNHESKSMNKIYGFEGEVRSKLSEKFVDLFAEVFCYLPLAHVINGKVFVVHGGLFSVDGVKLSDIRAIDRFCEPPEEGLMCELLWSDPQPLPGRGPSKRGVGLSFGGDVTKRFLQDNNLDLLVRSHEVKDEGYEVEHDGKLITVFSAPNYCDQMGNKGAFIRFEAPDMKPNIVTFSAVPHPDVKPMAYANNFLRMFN

[1] = system: autophosphorylated oat phytochrome A; assay: Dephosphorylation of autophosphorylated phytochrome by PAPP5 in vitro; type: biochemical; settings: Rc 664 nm or FRc 748 nm irradiation for 5 minutes
Description: First, KP buffer (20 mM Tris-HCl pH7.5, 30 mM MgCl2, 1 mM EDTA, 1 mM EGTA, 0.1% β-mercaptoethanol, 0.1% ethanol) containing 1 μg of purified oat phytochrome A (provided from Kumho Life and Environmental Science Laboratory, Korea) was set on ice and irradiated with Rc light output of 50 μmolS^−1m^−2 at 664 nm for 5 minutes. Then, the reaction solution was allowed to react with [γ-^32P]ATP in dark conditions for 30 minutes (autophosphorylation of phytochrome A). Following addition of 1 μg of each of the fusion proteins GST-PAPP5, GST-TPR and GST-PP2Ac prepared in Examples <4-1> and <5-1>, the reaction continued for more 30 minutes, and then stopped by adding 12 μl of 5× Tris-glycine SDS sample buffer under dim green safe light.
Next, the present inventors investigated whether the phosphatase activity of PAPP5 depends on a change in the spectroscopic structure (photoconversion) of phytochrome molecules (Pr⇄Pfr). KP buffer solution containing phytochrome was set on ice and irradiated with a Rc light output of 50 μmolS^−1m^−2 at 664 nm (conversion of phytochrome into Pfr form) or a FRc light output of 50 μmolS^−1m^−2 at 748 nm (conversion of phytochrome into […]) for 5 minutes. Then, the autophosphylation/dephosphorylation test of phytochrome was performed in the same manner as described above.

[2] = In vitro phosphatase assay: enzymatic activity of PAPP5 and its domain fragments on ρNPP; type: biochemical; settings: in the presence of 100 μM arachidonic acid
Description: In order to examine whether the inventive PAPP5 protein has enzymatic activity, an enzymatic assay was performed using […] ρ-nitrophenyl phosphate (ρNPP) as a substrate. First, the GST-PAPP5 fusion protein purified in Example <4-1> was prewarmed at 30° C. for 1 minute. The prewarmed enzyme solution was added to 100 μl of kinase/phosphatase (KP) buffer (20 mM Tris-HCl pH 7.5, 30 mM MgCl2, 1 mM EDTA, 1 mM EGTA, 0.1% β-mercaptoethanol, 0.1% ethanol) containing O-400 mM ρNPP to initiate a reaction. To examine the autohydrolysis of ρNPP at each substrate concentration, the GST-PAPP5 enzyme solution was not added to a control group. After reaction at 30° C. for 15 minutes, 900 μl of 0.25N NaOH was added to terminate the reaction. The absorbance at 410 nm was measured. After subtracting the absorbance value of the control reaction solution containing all the components except for the enzyme from that of the reaction solution containing the enzyme, the rate was calculated using a millimolar extinction coefficient (17.8) of ρ-nitrophenolate ions.
Thus, in order to confirm if PAPP5 also have this property, the present inventors examined the phosphatase activities of GST-PAPP5, GST-TPR and GST-PP2Ac in the same manner as in Example <6-1>. At this time, the concentration of ρNPP was 100 mM.

PAPP5: type 5 serine/threonine protein phosphatase of Arabidopsis thaliana interacting with phytochromes, SEQ ID NO: 4
binding to phytochrome A (phytochrome A): has the property of binding
dephosphorylation by PAPP5 according to the form of phytochrome (Pfr vs Pr) [1]: higher in Pfr phytochrome
Km (Michaelis-Menten) [2]: 160 mM ρNPP
Vmax (Michaelis-Menten) [2]: 22 μmmol Pi released/min/mg
